# Test results from US20120180150A1 (published 2012).
# B1: mouse KRAP deletion mutant composed of the coiled-coil region only (988-1252), N-terminal HA tag (other)
# chain: HMTEEDRYEVDQLQGLRNSVRMELQDLEMQLEERLLGLDEQLRAVRVPSPFRPSALPGMCGSRSVDNLSCPSPLNVMEPVTELMREQSYLKSELGLGLGDMAYEIPPGESSESVFSQATSESSSVCSSPSHTNRRSRGLPGSKPRARLVARKKIFRASVALTPTAPSRTGSVQTPPDLESSEEAGGAEEASPVVGLASHVEEEPEDLSLMPAAEEMHRNVEQDELQQVIREIKESIVGEIRREIVSGLLAAVASSKAPGPKQDSH
# notes: not shown: N-terminal HA tag of the pCMV-HA vector
# Target: T1, mouse IP3R1 full length with C-terminal GFP (mouse, UniProt P11881 1-2749)
# T1 construct: also called IP3R1-GFP; IP3R-GFP protein; not shown: C-terminal GFP of the pEGFP-N1 vector, with any linker from the cloning site
# Test: HA-matrix co-immunoprecipitation from HEK 293 cells, anti-GFP Western blot
# Method: Into HEK 293 cells, a full length IP3R1-GFP expression plasmid and each of the KRAP full length, the deletion mutants, or the point-mutant expression plasmids were introduced together with lipofectamine LTX (Invitrogen), respectively, and the resulting cells were incubated for 24 hours. They were then homogenized in an extracting buffer (50 mM Tris-HCl, pH7.5, 140 mM NaCl, 0.5% NP40, 0.25M NDSB-201 (Calbiochem), and protease inhibitors (Complete EDTA-free, Roche)), and the homogenized mixture was centrifuged at 15,000 rpm for 30 minutes. The resulting supernatant was then subjected to immunoprecipitation with HA matrix (Roche) to precipitate the IP3R-GFP protein binding to the KRAP protein, and the precipitated IP3R-GFP protein was detected by Western blots using a rabbit polyclonal antibody (Clonetech) as an anti-GFP antibody. In the experiment using HCT 116 cells, the presence or absence of co-precipitation of the endogenous IP3R protein was investigated without transfection of the IP3R-GFP protein using a mouse monoclonal antibody (BD Transduction Laboratory) as an anti-IP3R3 antibody.
# T1 sequence (P11881 whole entry S1044R/E1045K): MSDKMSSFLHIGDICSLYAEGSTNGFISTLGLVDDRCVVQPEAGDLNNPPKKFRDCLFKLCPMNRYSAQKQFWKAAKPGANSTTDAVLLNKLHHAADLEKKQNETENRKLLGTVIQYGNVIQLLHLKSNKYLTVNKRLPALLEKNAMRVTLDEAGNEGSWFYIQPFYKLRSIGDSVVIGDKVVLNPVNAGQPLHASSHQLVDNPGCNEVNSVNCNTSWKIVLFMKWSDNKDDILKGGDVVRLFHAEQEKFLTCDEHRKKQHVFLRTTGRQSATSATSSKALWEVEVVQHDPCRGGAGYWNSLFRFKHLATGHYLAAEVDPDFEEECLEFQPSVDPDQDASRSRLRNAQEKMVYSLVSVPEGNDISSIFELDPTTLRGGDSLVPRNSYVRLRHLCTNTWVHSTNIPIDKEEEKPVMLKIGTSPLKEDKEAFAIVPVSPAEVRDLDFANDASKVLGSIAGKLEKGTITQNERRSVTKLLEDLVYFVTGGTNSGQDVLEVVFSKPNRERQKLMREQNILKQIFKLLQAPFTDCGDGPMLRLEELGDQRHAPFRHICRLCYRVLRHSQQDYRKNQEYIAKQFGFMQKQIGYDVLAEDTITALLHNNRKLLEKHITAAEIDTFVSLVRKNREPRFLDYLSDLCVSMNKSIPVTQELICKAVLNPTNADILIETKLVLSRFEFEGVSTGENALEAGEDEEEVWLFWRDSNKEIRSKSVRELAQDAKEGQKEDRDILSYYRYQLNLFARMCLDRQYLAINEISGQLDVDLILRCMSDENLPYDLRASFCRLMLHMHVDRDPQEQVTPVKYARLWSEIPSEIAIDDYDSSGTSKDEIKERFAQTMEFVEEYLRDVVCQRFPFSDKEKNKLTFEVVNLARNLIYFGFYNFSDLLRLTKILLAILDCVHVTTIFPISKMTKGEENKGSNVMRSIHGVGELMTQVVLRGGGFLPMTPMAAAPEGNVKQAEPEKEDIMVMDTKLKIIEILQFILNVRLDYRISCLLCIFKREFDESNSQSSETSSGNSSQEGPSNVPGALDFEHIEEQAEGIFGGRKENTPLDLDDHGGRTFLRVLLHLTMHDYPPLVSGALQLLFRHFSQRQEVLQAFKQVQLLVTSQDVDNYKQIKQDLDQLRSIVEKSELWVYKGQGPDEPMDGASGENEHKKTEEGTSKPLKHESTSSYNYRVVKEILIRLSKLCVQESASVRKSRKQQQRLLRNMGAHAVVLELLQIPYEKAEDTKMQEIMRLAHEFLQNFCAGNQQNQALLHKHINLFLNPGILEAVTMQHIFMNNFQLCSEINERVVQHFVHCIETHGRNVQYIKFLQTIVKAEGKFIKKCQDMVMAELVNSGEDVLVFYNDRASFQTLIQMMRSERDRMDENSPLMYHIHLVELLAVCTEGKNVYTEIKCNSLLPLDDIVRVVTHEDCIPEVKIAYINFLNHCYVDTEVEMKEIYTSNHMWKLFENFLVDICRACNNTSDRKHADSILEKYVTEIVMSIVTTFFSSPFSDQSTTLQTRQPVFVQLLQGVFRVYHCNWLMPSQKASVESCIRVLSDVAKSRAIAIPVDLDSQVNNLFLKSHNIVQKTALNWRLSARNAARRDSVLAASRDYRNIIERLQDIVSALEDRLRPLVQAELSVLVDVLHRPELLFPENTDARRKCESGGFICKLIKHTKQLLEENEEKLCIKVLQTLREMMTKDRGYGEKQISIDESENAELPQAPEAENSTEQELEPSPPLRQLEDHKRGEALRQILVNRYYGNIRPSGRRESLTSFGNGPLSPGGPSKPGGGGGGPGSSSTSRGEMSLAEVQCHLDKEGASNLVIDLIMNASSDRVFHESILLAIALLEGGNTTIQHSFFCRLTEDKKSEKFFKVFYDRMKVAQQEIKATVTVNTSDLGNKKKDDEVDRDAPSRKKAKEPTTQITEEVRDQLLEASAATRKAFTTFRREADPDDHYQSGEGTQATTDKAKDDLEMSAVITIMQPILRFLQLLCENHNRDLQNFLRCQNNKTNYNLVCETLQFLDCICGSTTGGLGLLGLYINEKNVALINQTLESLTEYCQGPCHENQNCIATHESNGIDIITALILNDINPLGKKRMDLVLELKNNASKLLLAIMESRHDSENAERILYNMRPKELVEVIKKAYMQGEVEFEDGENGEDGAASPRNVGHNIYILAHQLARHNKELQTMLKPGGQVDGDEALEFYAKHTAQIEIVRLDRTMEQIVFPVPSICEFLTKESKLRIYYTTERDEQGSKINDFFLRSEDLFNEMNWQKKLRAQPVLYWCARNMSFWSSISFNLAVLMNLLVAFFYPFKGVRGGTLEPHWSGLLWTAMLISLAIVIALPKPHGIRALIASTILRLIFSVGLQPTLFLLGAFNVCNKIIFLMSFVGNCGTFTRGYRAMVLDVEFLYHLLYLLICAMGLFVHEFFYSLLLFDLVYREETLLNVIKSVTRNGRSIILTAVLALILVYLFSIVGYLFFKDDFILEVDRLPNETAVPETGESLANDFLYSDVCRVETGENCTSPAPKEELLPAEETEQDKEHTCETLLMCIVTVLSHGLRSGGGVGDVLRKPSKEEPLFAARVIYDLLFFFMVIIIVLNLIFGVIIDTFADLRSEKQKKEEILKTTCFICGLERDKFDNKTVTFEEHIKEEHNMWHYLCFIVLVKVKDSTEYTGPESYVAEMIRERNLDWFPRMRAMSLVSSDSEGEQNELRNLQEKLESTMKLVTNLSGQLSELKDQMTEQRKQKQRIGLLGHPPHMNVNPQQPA
binder,measurement,value
B1,binding result,no binding
